Two molecules from paper PMC8518180, “A global screening identifies chromatin-enriched RNA-binding proteins and the transcriptional regulatory activity of QKI5 during monocytic differentiation” can be followed below.

For this data set, the target named is T1, QKI5 (UniProt Q96PU8 1-341).
T1 sequence: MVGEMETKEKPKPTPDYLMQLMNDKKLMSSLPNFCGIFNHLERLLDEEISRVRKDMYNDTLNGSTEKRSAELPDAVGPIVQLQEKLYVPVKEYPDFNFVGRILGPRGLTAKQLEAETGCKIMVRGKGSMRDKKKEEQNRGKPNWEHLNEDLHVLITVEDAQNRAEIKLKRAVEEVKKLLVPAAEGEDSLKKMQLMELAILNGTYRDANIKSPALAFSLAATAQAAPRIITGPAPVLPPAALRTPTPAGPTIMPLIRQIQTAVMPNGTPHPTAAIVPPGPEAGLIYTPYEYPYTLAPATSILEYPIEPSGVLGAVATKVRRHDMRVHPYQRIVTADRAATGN
Briefly: EMSA; 50 fmol biotin-labelled probe; LightShift Chemiluminescent EMSA Kit per manufacturer; 50 fmol biotin-labelled probe, 4 ul QKI5; room temperature 20 min; native 8% PAGE; buffer, salt and pH not stated. The following applies: protein: commercial; chain copies: 2; label: 5'-biotin (cold version unlabelled); blunt.

B1: mutant CXCL2 promoter probe (dsDNA)
DNA 1: GAAAGGATGGAAAGCCATAACACTGTTAAC
DNA 2: GTTAACAGTGTTATGGCTTTCCATCCTTTC
Turning to B1, the binding result is given as “no binding”.

B2: wild-type CXCL2 promoter probe (dsDNA)
DNA 1: GAAAGGATGGGGGATTGCAACACTGTTAAC
DNA 2: GTTAACAGTGTTGCAATCCCCCATCCTTTC
For the molecule B2, the binding result is on record as “binds”.
